Experimental findings from patent publication US20150232576A1 (published 2015) are described below.

What is called Kd is the concentration at which binding is half-saturated. Low readings indicate a tighter complex, high ones a looser complex. The koff is the first-order rate constant of dissociation. Low readings indicate slow dissociation, high ones fast dissociation. The term kon denotes the second-order rate constant of association.

Assay [1] has as its target T1, ERK-2 (extracellular signal-regulated kinase 2) (UniProt P28482 1-360, limits assumed, biotinylated for immobilisation on streptavidin sensors).
T1 construct: Bought protein; also called ERK1/2
Kind of assay: BLI, immobilised ERK-2, single component fit. The protocol:
NOSs were expressed and purified as known in the art (22-24). Heme and flavin content were estimated spectrophotometrically, and activity assayed by following NADPH consumption at 340 nm (23, 24). eNOS NO synthase activity and cytochrome c reduction were assayed as known in the art (25, 26), the concentration of CaM was reduced to 0.6 μM because of potential competition between CaM and p38. Phosphorylated His-p38 was expressed as known in the art (26) and was purified using Talon™ resin as directed by the manufacturer. ERK-2 was purchased from PROSPEC (NJ). Biolayer interferometry (27) measurements were made on a ForteBio (Menlo Park Calif.) Octet QK biosensor using streptavidin sensors. Assays were performed in 200 μL volumes at 25° C. p38 and ERK were biotinylated as known in the art (21). Biotinylated kinases were loaded onto sensors for 600 s. After establishing baseline response, kinases were exposed to analyte eNOS or nNOS at a range of concentrations. Baseline, association, and dissociation phases were all performed in NOS buffer (10 mM phosphate, pH 7.5, 100 mM NaCl, 10% glycerol, 0.005% surfactant P-20, 10 uM CaCl₂). Association and dissociation were monitored as nm shift. Nonspecific binding of analytes to sensors without ligand was negligible and so was not subtracted.
The concentration dependence was similar to that of the binding of eNOS to p38. […]
In general terms: BLI is a label-free optical method that tracks binding on a fibre tip over time.

In assay [2] the target is T2, calmodulin (CaM) (UniProt P0DP23 2-149). Kind of assay: BLI, biotinylated CaM on streptavidin sensors, eNOS analyte, global single-state model.
In assay [3] the target is T2, calmodulin (CaM). Kind of assay: optical biosensing (BLI, SPR), immobilised CaM.
In assay [4] the target is T2, calmodulin (CaM). Kind of assay: SPR (Biacore X100, CAPture chip), immobilised CaM, single-cycle kinetics, sequential model. (In general: Surface plasmon resonance follows binding to a sensor surface in real time, without labels.)
Assay [5] deals with T2, calmodulin (CaM). Kind of assay: BLI, immobilised CaM, single-state model.

T1 sequence (P28482 whole entry): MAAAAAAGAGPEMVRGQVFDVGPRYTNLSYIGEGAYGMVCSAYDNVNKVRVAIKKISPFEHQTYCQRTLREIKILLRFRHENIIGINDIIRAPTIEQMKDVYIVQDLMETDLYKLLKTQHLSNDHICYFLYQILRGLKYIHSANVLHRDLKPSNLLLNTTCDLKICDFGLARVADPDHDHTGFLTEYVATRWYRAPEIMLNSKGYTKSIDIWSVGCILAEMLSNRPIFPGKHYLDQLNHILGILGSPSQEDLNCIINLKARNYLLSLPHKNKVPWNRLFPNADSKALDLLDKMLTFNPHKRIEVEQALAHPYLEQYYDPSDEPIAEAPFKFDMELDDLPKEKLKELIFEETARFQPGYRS

B1: endothelial nitric oxide synthase (eNOS), purified, unphosphorylated (enzyme, bovine, UniProt P29473 1-1205, looked up)
chain: MGNLKSVGQEPGPPCGLGLGLGLGLCGKQGPASPAPEPSRAPAPATPHAPDHSPAPNSPTLTRPPEGPKFPRVKNWELGSITYDTLCAQSQQDGPCTPRCCLGSLVLPRKLQTRPSPGPPPAEQLLSQARDFINQYYSSIKRSGSQAHEERLQEVEAEVASTGTYHLRESELVFGAKQAWRNAPRCVGRIQWGKLQVFDARDCSSAQEMFTYICNHIKYATNRGNLRSAITVFPQRAPGRGDFRIWNSQLVRYAGYRQQDGSVRGDPANVEITELCIQHGWTPGNGRFDVLPLLLQAPDEAPELFVLPPELVLEVPLEHPTLEWFAALGLRWYALPAVSNMLLEIGGLEFSAAPFSGWYMSTEIGTRNLCDPHRYNILEDVAVCMDLDTRTTSSLWKDKAAVEINLAVLHSFQLAKVTIVDHHAATVSFMKHLDNEQKARGGCPADWAWIVPPISGSLTPVFHQEMVNYILSPAFRYQPDPWKGSATKGAGITRKKTFKEVANAVKISASLMGTLMAKRVKATILYASETGRAQSYAQQLGRLFRKAFDPRVLCMDEYDVVSLEHEALVLVVTSTFGNGDPPENGESFAAALMEMSGPYNSSPRPEQHKSYKIRFNSVSCSDPLVSSWRRKRKESSNTDSAGALGTLRFCVFGLGSRAYPHFCAFARAVDTRLEELGGERLLQLGQGDELCGQEEAFRGWAKAAFQASCETFCVGEEAKAAAQDIFSPKRSWKRQRYRLSTQAEGLQLLPGLIHVHRRKMFQATVLSVENLQSSKSTRATILVRLDTAGQEGLQYQPGDHIGICPPNRPGLVEALLSRVEDPPPPTESVAVEQLEKGSPGGPPPSWVRDPRLPPCTLRQALTFFLDITSPPSPRLLRLLSTLAEEPSEQQELETLSQDPRRYEEWKWFRCPTLLEVLEQFPSVALPAPLLLTQLPLLQPRYYSVSSAPNAHPGEVHLTVAVLAYRTQDGLGPLHYGVCSTWLSQLKTGDPVPCFIRGAPSFRLPPDPYVPCILVGPGTGIAPFRGFWQERLHDIESKGLQPAPMTLVFGCRCSQLDHLYRDEVQDAQERGVFGRVLTAFSREPDSPKTYVQDILRTELAAEVHRVLCLERGHMFVCGDVTMATSVLQTVQRILATEGDMELDEAGDVIGVLRDQQRYHEDIFGLTLRTQEVTSRIRTQSFSLQERHLRGAVPWAFDPPGPDTPGP
notes: Expressed and purified 'as known in the art (22-24)'; also called unphosphorylated eNOS; purified eNOS
Regarding B1, in assay [1], the “fold of apparent Kd against that measured for p38” value was ~2 fold. For the same molecule, the Kd in the assay with calmodulin (CaM) [2] was 0.92 nM; with calmodulin (CaM) [3] it was ~1 nM; with calmodulin (CaM) [4] it was 0.72 nM. Besides, the koff with calmodulin (CaM) [2] worked out at 0.00011 s⁻¹. In addition, the kon with calmodulin (CaM) [2] was found to be 120000 M⁻¹ s⁻¹.

B2: ERK phosphorylated eNOS (enzyme)
chain: B1 chain
modifications: phosphorylated in vitro by ERK2 at S602, T46 and S58 (bovine eNOS numbering); apparent stoichiometry 2-3 phosphates per monomer
In the assay with calmodulin (CaM) [2], B2 registered a Kd of 2.7 nM, a koff of 0.00012 s⁻¹ and a kon of 120000 M⁻¹ s⁻¹. Also, the “fold higher koff than unphosphorylated eNOS” value with calmodulin (CaM) [5] stood at 3 fold. Besides, the Kd in the assay with calmodulin (CaM) [3] is ~1 nM. In the assay with calmodulin (CaM) [4], this molecule came in with an equilibrium dissociation constant (Kd) of 0.65 nM.
